Results from US20250115669A1, “FGFR1/KLB Targeting Agonistic Antigen-Binding Proteins and Conjugates Thereof with GLP-1R Agonistic Peptides” (SANOFI, priority 2020, published 2025).

Biological target: T1, human beta-Klotho (Homo sapiens, UniProt Q86Z14)
T1 sequence (Q86Z14 1-1044): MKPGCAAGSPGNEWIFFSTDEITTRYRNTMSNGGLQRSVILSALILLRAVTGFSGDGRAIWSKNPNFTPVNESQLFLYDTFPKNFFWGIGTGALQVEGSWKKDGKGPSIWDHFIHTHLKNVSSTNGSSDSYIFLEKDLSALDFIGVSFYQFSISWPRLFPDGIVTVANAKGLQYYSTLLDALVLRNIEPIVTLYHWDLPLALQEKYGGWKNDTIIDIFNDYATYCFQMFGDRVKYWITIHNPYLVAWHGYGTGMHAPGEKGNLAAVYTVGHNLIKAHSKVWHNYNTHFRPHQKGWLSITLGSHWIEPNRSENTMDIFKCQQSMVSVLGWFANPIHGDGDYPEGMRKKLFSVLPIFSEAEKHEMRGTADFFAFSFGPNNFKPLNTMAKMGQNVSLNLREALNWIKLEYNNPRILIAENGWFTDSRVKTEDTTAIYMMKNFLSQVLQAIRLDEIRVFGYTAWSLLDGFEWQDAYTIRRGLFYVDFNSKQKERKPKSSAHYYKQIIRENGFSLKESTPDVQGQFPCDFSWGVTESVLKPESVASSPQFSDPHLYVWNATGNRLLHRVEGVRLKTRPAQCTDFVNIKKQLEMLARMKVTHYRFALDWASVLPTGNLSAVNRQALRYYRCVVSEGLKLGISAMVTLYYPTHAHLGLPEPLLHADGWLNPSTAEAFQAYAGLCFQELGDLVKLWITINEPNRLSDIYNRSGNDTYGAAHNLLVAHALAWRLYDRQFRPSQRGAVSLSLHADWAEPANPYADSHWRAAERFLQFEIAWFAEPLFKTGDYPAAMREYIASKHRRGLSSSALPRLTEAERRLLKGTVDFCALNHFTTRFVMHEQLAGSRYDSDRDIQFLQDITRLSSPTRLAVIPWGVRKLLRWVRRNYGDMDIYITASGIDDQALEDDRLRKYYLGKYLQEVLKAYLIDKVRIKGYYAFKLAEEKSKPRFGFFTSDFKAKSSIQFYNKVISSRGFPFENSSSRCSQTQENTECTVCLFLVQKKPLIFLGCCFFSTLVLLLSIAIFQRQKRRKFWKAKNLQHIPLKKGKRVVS
Assay: SPR off-rate screening of antibody mutants (human beta-Klotho captured by anti-His antibody)
Type: binding
Conditions: mean, n=3
Procedure: Screening of antibody mutants for binding to human beta-Klotho was determined in a different SPR assay set up. Human beta-Klotho was affinity captured by an anti-His antibody (from His capture kit, GE Healthcare) that was immobilized to a series S CM5 chip (GE Healthcare) by amine reactive coupling as described above. The antibody samples were used as analytes at 50 nmol/L concentration. Association time was 240 sec and dissociation time was 300 sec. Chip surfaces were regenerated using the regeneration solution supplied with the His capture kit. The off-rates (kd) were determined using single exponential fitting in the Biacore 8K Evaluation Software version 1.1.1.7442 (GE Healthcare).

Molecule | koff human KLB
Ab0380: IgG4 PE; 16H7 VL (Y48del, D95V, W90F, S1C, S94C); 16H7 VH (M34V, H52S, F54W, I83T, D109E) (antibody) VH: QVTLKESGPVLVKPTETLTLTCTVSGFSLNNARVGVSWIRQPPGKALEWLASIWSNDEKSYSTSLKSRLTISKDTSKSQVVLTMTNMDPVDTATYYCARSVVTGGYYYEGMDVWGQGTTVTVSS light: CYVLTQPPSVSVAPGQTARITCGGNNIGSESVHWYQQKPGQAPVLVVDDSDRPSGIPERFSGSNSGNTATLTISRVEAGDEADYYCQVFDGNCVHVVFGGGTKLTVLGQPKANPTVTLFPPSSEELQANKATLVCLISDFYPGAVTVAWKADGSPVKAGVETTKPSKQSNNKYAASSYLSLTPEQWKSHRSYSCQVTHEGSTVEKTVAPTECS | no binding
Ab0381: IgG4 PE; 16H7 VL (Y48del, D95V, W90F, S94C, H96C); 16H7 VH (M34V, F54W, I83T, D109E) (antibody) VH: QVTLKESGPVLVKPTETLTLTCTVSGFSLNNARVGVSWIRQPPGKALEWLAHIWSNDEKSYSTSLKSRLTISKDTSKSQVVLTMTNMDPVDTATYYCARSVVTGGYYYEGMDVWGQGTTVTVSS light: SYVLTQPPSVSVAPGQTARITCGGNNIGSESVHWYQQKPGQAPVLVVDDSDRPSGIPERFSGSNSGNTATLTISRVEAGDEADYYCQVFDGNCVCVVFGGGTKLTVLGQPKANPTVTLFPPSSEELQANKATLVCLISDFYPGAVTVAWKADGSPVKAGVETTKPSKQSNNKYAASSYLSLTPEQWKSHRSYSCQVTHEGSTVEKTVAPTECS | no binding
Ab0382: IgG4 PE; 16H7 VL (Y48del, D95V, W90F, S94C, H96C); 16H7 VH (M34V, H52S, F54W, I83T, D109E) (antibody) VH: QVTLKESGPVLVKPTETLTLTCTVSGFSLNNARVGVSWIRQPPGKALEWLASIWSNDEKSYSTSLKSRLTISKDTSKSQVVLTMTNMDPVDTATYYCARSVVTGGYYYEGMDVWGQGTTVTVSS light: SYVLTQPPSVSVAPGQTARITCGGNNIGSESVHWYQQKPGQAPVLVVDDSDRPSGIPERFSGSNSGNTATLTISRVEAGDEADYYCQVFDGNCVCVVFGGGTKLTVLGQPKANPTVTLFPPSSEELQANKATLVCLISDFYPGAVTVAWKADGSPVKAGVETTKPSKQSNNKYAASSYLSLTPEQWKSHRSYSCQVTHEGSTVEKTVAPTECS | no binding
Ab0383: IgG4 PE; 16H7 VL (Y48del, D95V, W90F); 16H7 VH (M34V, H52W, I83T, D109E) (antibody) VH: QVTLKESGPVLVKPTETLTLTCTVSGFSLNNARVGVSWIRQPPGKALEWLAWIFSNDEKSYSTSLKSRLTISKDTSKSQVVLTMTNMDPVDTATYYCARSVVTGGYYYEGMDVWGQGTTVTVSS light: SYVLTQPPSVSVAPGQTARITCGGNNIGSESVHWYQQKPGQAPVLVVDDSDRPSGIPERFSGSNSGNTATLTISRVEAGDEADYYCQVFDGNSVHVVFGGGTKLTVLGQPKANPTVTLFPPSSEELQANKATLVCLISDFYPGAVTVAWKADGSPVKAGVETTKPSKQSNNKYAASSYLSLTPEQWKSHRSYSCQVTHEGSTVEKTVAPTECS | no binding
Ab0389: IgG4 PE; 16H7 VL (Y48del, D95S, W90F, S1C, S94C); 16H7 VH (M34V, H52S, F54W, I83T, D109E) (antibody) VH: QVTLKESGPVLVKPTETLTLTCTVSGFSLNNARVGVSWIRQPPGKALEWLASIWSNDEKSYSTSLKSRLTISKDTSKSQVVLTMTNMDPVDTATYYCARSVVTGGYYYEGMDVWGQGTTVTVSS light: CYVLTQPPSVSVAPGQTARITCGGNNIGSESVHWYQQKPGQAPVLVVDDSDRPSGIPERFSGSNSGNTATLTISRVEAGDEADYYCQVFDGNCSHVVFGGGTKLTVLGQPKANPTVTLFPPSSEELQANKATLVCLISDFYPGAVTVAWKADGSPVKAGVETTKPSKQSNNKYAASSYLSLTPEQWKSHRSYSCQVTHEGSTVEKTVAPTECS | no binding
Ab0390: IgG4 PE; 16H7 VL (Y48del, D95S, W90F, S94C, H96C); 16H7 VH (M34V, F54W, I83T, D109E) (antibody) VH: QVTLKESGPVLVKPTETLTLTCTVSGFSLNNARVGVSWIRQPPGKALEWLAHIWSNDEKSYSTSLKSRLTISKDTSKSQVVLTMTNMDPVDTATYYCARSVVTGGYYYEGMDVWGQGTTVTVSS light: SYVLTQPPSVSVAPGQTARITCGGNNIGSESVHWYQQKPGQAPVLVVDDSDRPSGIPERFSGSNSGNTATLTISRVEAGDEADYYCQVFDGNCSCVVFGGGTKLTVLGQPKANPTVTLFPPSSEELQANKATLVCLISDFYPGAVTVAWKADGSPVKAGVETTKPSKQSNNKYAASSYLSLTPEQWKSHRSYSCQVTHEGSTVEKTVAPTECS | no binding
Ab0391: IgG4 PE; 16H7 VL (Y48del, D95S, W90F, S94C, H96C); 16H7 VH (M34V, H52S, F54W, I83T, D109E) (antibody) VH: QVTLKESGPVLVKPTETLTLTCTVSGFSLNNARVGVSWIRQPPGKALEWLASIWSNDEKSYSTSLKSRLTISKDTSKSQVVLTMTNMDPVDTATYYCARSVVTGGYYYEGMDVWGQGTTVTVSS light: SYVLTQPPSVSVAPGQTARITCGGNNIGSESVHWYQQKPGQAPVLVVDDSDRPSGIPERFSGSNSGNTATLTISRVEAGDEADYYCQVFDGNCSCVVFGGGTKLTVLGQPKANPTVTLFPPSSEELQANKATLVCLISDFYPGAVTVAWKADGSPVKAGVETTKPSKQSNNKYAASSYLSLTPEQWKSHRSYSCQVTHEGSTVEKTVAPTECS | no binding
Ab0392: IgG4 PE; 16H7 VL (Y48del, D95S, W90F); 16H7 VH (M34V, H52W, I83T, D109E) (antibody) VH: QVTLKESGPVLVKPTETLTLTCTVSGFSLNNARVGVSWIRQPPGKALEWLAWIFSNDEKSYSTSLKSRLTISKDTSKSQVVLTMTNMDPVDTATYYCARSVVTGGYYYEGMDVWGQGTTVTVSS light: SYVLTQPPSVSVAPGQTARITCGGNNIGSESVHWYQQKPGQAPVLVVDDSDRPSGIPERFSGSNSGNTATLTISRVEAGDEADYYCQVFDGNSSHVVFGGGTKLTVLGQPKANPTVTLFPPSSEELQANKATLVCLISDFYPGAVTVAWKADGSPVKAGVETTKPSKQSNNKYAASSYLSLTPEQWKSHRSYSCQVTHEGSTVEKTVAPTECS | no binding
Ab0393: IgG4 PE; 16H7 VL (Y48del, D95S, W90F, S94C, H96C); 16H7 VH (M34V, H52W, I83T, D109E) (antibody) VH: QVTLKESGPVLVKPTETLTLTCTVSGFSLNNARVGVSWIRQPPGKALEWLAWIFSNDEKSYSTSLKSRLTISKDTSKSQVVLTMTNMDPVDTATYYCARSVVTGGYYYEGMDVWGQGTTVTVSS light: SYVLTQPPSVSVAPGQTARITCGGNNIGSESVHWYQQKPGQAPVLVVDDSDRPSGIPERFSGSNSGNTATLTISRVEAGDEADYYCQVFDGNCSCVVFGGGTKLTVLGQPKANPTVTLFPPSSEELQANKATLVCLISDFYPGAVTVAWKADGSPVKAGVETTKPSKQSNNKYAASSYLSLTPEQWKSHRSYSCQVTHEGSTVEKTVAPTECS | no binding
Ab0394: IgG4 PE; 16H7 VL (Y48del, D95S, W90F, S1C, S94C); 16H7 VH (M34V, H52W, I83T, D109E) (antibody) VH: QVTLKESGPVLVKPTETLTLTCTVSGFSLNNARVGVSWIRQPPGKALEWLAWIFSNDEKSYSTSLKSRLTISKDTSKSQVVLTMTNMDPVDTATYYCARSVVTGGYYYEGMDVWGQGTTVTVSS light: CYVLTQPPSVSVAPGQTARITCGGNNIGSESVHWYQQKPGQAPVLVVDDSDRPSGIPERFSGSNSGNTATLTISRVEAGDEADYYCQVFDGNCSHVVFGGGTKLTVLGQPKANPTVTLFPPSSEELQANKATLVCLISDFYPGAVTVAWKADGSPVKAGVETTKPSKQSNNKYAASSYLSLTPEQWKSHRSYSCQVTHEGSTVEKTVAPTECS | no binding
